# Biological target: Human sapovirus (HuSaV) GI.6 capsid protein VP1, Nichinan strain, self-assembled as a virus-like particle (VLP) (human sapovirus GI.6, Nichinan strain)
# Test: cryo-EM structure; single-particle cryo-EM of purified VLPs in Express Five SFM, icosahedral symmetry imposed, 2.9 Å; de novo atomic model
substance,measurement,value
"Human sapovirus (HuSaV) GI.6 capsid protein VP1, Nichinan strain, self-assembled as a virus-like particle (VLP) (natural protein)",stoichiometry N,180 copies
